Results from patent US20260116991A1 (HAINAN SIMCERE ZAIMING PHARMACEUTICAL, published 2026).

Experiments:
monkey GPC3-His protein [1] = molecular target: T1, monkey GPC3-His protein (monkey); assay: ELISA, monkey GPC3-His coated;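 further: Plate-coated antigen at 1 µg/mL, antibody binding 2 h at 37 °C, detected with HRP-labeled secondary antibody and TMB, absorbance at 450 nm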
T1 construct: Bought recombinant protein; also called monkey GPC3 protein
Method: The specific method is described as follows: The antigen protein was diluted with PBS to a final concentration of 1 μg/mL, and the diluent was added to a 96-well ELISA plate at 50 μL/well. The plate was sealed with a plastic film and incubated at 4° C. overnight, washed twice with PBS the next day, and a blocking solution [PBS+2% (w/w) BSA] was added for blocking at room temperature for 2 h. […] After incubation at 37° C. for 2 h, the plate was washed 3 times with PBS. A horseradish peroxidase (HRP)-labeled secondary antibody (purchased from Merck, Cat. No. AP113P) was added for incubation at 37° C. for 1 h, and the plate was washed 5 times with PBS. A TMB substrate was added at 50 μL/well for incubation at room temperature for 10 min, then a stop solution (1.0M HCl) was added at 50 μL/well. An ELISA plate reader (Multimode Plate Reader, EnSight, purchased from Perkin Elmer) was used to read OD_{450 nm} values, with results as shown in Table 4 to Table 6, FIG. 1A, FIG. 1B, and FIG. 1C.

[2] = molecular target: T2, monkey GPC3 on HEK293T-monkey GPC3 cells (monkey); assay: FACS on HEK293T-monkey GPC3 cells;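 further: flow cytometry binding of test antibodies to the cells, read as mean fluorescence intensity, with half-maximal concentration taken from fitted curves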
T2 construct: whole, on cells
Method: The desired cells were expanded to a logarithmic growth phase in a T-75 cell culture flask, the medium was removed by pipetting, and the cells were washed twice with a PBS buffer, and digested with trypsin. Then a complete medium was added to stop the digestion, and the cells were blown into a single cell suspension. After counting, the cells were centrifuged, and the cell pellet was resuspended with an FACS buffer (PBS+2% fetal bovine serum) to 2×10⁶ cells/mL. The cell resuspension solution was added to a 96-well FACS reaction plate at 50 μl/well, and a chimeric antibody sample to be tested was added at 50 μl/well for incubation at 4° C. for 1 h. […] After the plate was centrifuged and washed 3 times with a PBS buffer, 100 μl of the resulting solution was assayed and analyzed by FACS (FACS Canto™, purchased from BD Biosciences). Data analysis was performed by software (FlowJo) to obtain the mean fluorescence intensity (MFI) of the cells. Then, analysis was performed by software (GraphPad Prism8), data were fitted, and EC₅₀ values were calculated.

human GPC3-His protein = molecular target: T3, human GPC3-His protein (human, UniProt P51654 25-559); assay: SPR, antibody captured on Protein A chip, human GPC3-His analyte;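 further: measured at 25 °C flow cell, human GPC3-His injected at five concentrations up to 200 nM, 240 s association, up to 600 s dissociation, double-referenced, fitted to Langmuir 1:1 model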
T3 construct: also called human GPC3 protein; not shown: His tag

monkey GPC3-His protein [3] = molecular target: T1, monkey GPC3-His protein; assay: SPR, antibody captured on Protein A chip, monkey GPC3-His analyte;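 further: run at 25 °C with 240 s association and up to 600 s dissociation, double-referenced, kinetics fitted to a 1:1 Langmuir binding model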
Method: The flow cell was set at 25° C. The sample block was set at 16° C. Both were pretreated with the running buffer. In each cycle, first, the antibody to be tested was captured using the Protein A chip, and then a single concentration of GPC3 antigen protein was injected. […] The association was determined by injecting different concentrations of human GPC3-His in the solution and maintaining for 240 s, wherein the flow rate was 30 μL/min, and the protein was diluted at a 1:1 dilution ratio from 200 nM to obtain 5 concentrations in total. The dissociation phase was monitored for up to 600 s and triggered by switching from the sample solution to the running buffer. The surface was regenerated by washing with 10 mM glycine solution (pH 1.5) at a flow rate of 30 μL/min for 30 s. The difference in bulk refractive index was corrected by subtracting the responses obtained from the goat anti-human Fc surface. Blank injections (double reference) were also subtracted. To calculate the apparent KD and other kinetic parameters, the Langmuir 1:1 model was used.

Binder | OD450 at 0.0001 nM (monkey GPC3-His protein [1]) [OD450] | OD450 at 0.001 nM (monkey GPC3-His protein [1]) [OD450] | OD450 at 0.01 nM (monkey GPC3-His protein [1]) [OD450] | OD450 at 0.1 nM (monkey GPC3-His protein [1]) [OD450] | OD450 at 1 nM (monkey GPC3-His protein [1]) [OD450] | OD450 at 10 nM (monkey GPC3-His protein [1]) [OD450] | OD450 at 100 nM (monkey GPC3-His protein [1]) [OD450] | EC50 [2] [nM] | Max MFI [2] [MFI] | Kd (human GPC3-His protein) [nM] | koff (human GPC3-His protein) [s⁻¹] | kon (human GPC3-His protein) [M⁻¹ s⁻¹] | Kd (monkey GPC3-His protein [3]) [nM] | koff (monkey GPC3-His protein [3]) [s⁻¹] | kon (monkey GPC3-His protein [3]) [M⁻¹ s⁻¹]
F1.120.16 (antibody, human IgG1, kappa, V domains shown, Human-murine chimeric antibody) VH: EFQLQQSGPELVKPGASVKISCKASGYSFTDYNMNWVKQSNGKSLEWIGLIHPKFSVTSYNRKFKGKATLTVDQSSSTAYMQLNSLTSEDSAVYYCARWAGDYFDYWGQGTTLTVSS VL: DIVLTQSPATLSVTPGDSVSLSCRASQSISNNLHWYQQKSHESPRLLIKYASQSISGIPSRFSGSGSGTDFTLTINSVETEDFGMYFCQQSNSWPQTFGGGTKLEIKR | 0.07 | 0.07 | 0.26 | 1.11 | 1.91 | 2.21 | 2.14 | 0.25 | 5540 | 8.03 | 0.000629 | 78400 | 4.44 | 0.000639 | 144000
F1.111.11 (antibody, human IgG1, kappa, V domains shown, Human-murine chimeric antibody) VH: EVQLQQSGPELVKPGASVKISCKASGYTFTDYYMNWVKQSHGKSLEWIGDIYPNNGDTTYNQRFKGKATLTVDKSSSTAYMELRSLASEDSAVYYCACPYNNPFGYWGQGTLVTVSA VL: DVVMTQTPLSLPVSLGDQASISCRSSQSLVHSNGNTYLHWYLQKPGQSPKLLIYKVSNRFSGVPDRFSGSGSGTDFTLKISRVEAEDLGVYFCSQSTHVPWTFGGGTKLEIKR | 0.06 | 0.11 | 0.53 | 1.91 | 2.57 | 2.62 | 2.66 | 0.42 | 4450 | 6.75 | 0.000445 | 65800 | 4.67 | 0.000447 | 95800
F1.115.8 (antibody, human IgG1, kappa, V domains shown, Human-murine chimeric antibody) VH: EVQLQQSGPELVKPGASVKMSCKASGYTFTEYYMHWVKQSHGKSLEWIGYIYPNNGGNGYNQKFKGKATLTVDKSSSTAYMGLRSLTSEDSAVYYCVRGYYSNWYFDVWGTGTTVTVSS VL: DVLMTQTPLSLPVSLGDQASISCRSSQSIVHSNGKTYLEWYLQKPGQSPKLLIYKVSNRFSGVPDRFSGSGSGTDFTLKISRVEAEDLGVYYCFQGSHVPFTFGSGTKLEIKR | 0.05 | 0.07 | 0.27 | 1.33 | 2.14 | 2.36 | 2.26 | 0.33 | 6390 | 1.4 | 0.00115 | 820000 | 1.05 | 0.00145 | 1.38e+06
F1.136.7 (antibody, human IgG1, kappa, V domains shown, Human-murine chimeric antibody) VH: EVQLQQSGPVMVKPGPSVKISCQTSGFTFTDYYIHWVKQSHGKSLEWIGLVFPYDGGTNYNQKFKDKATLTLDTSSSTAYMELNSLTSEDSAVYYCARAGGFSYALNYWGQGTSVTVSS VL: DIQMTQSPSSLSASLGGKVTITCKASQDINNYIAWYQHKPGKGPRLLIHFTSTLQPGIPSRFSGSGSGRDYSFSISNLEPEDIATYYCLQYDNLLLTFGAGTKLELKR | 0.05 | 0.05 | 0.1 | 0.62 | 1.33 | 1.96 | 1.96 | 1.94 | 6480 | 0.837 | 7.03e-05 | 84100 | 0.183 | 2.88e-05 | 158000
F1.145.22 (antibody, human IgG1, kappa, V domains shown, Human-murine chimeric antibody) VH: QVQLQQSGTDLARPGASVKLSCKASGYTFTSFGISWVKQRTGQGLEWIGEIYPRSGSPYYNEKFTGKATLTADKSSSTAYMELRSLTSEDSAVYFCAKDFGSSYVFDYWGQGTALTVSS VL: DIQMTQSPASLSASVGETVTITCRASENIYSYLTWYQQKQGKSPQLLVYNAKTLAEGVPSRFSGSGSGTQFSLKINSLQPEDFGTYYCQHHYGTPPTFGTGTKLDLKR | 0.05 | 0.07 | 0.25 | 1.23 | 2.17 | 2.39 | 2.4 | 0.69 | 6050 | 0.754 | 0.000164 | 218000 | 0.525 | 0.000164 | 311000
F2.55.11 (antibody, human IgG1, kappa, V domains shown, Human-murine chimeric antibody) VH: EVKLVESGGGLVKPGGSLKLSCAASGLTFSTCTMSWVRQTPAKRLEWVATISSGGGNTYYPDSVKGRFTISRDNARNTLYLQMSSLRSEDTAMYYCVRLYYDGSPYAMDYWGQGTSVTVSS VL: DIQMTQTTSSLSASLGDRVTISCRASQDISNHLNWYQQKPDGTVKLLIYYTSRLHSGVPSRFSGSGSGTDYSLTISNLEQEDIATYFCQQDSKPPPTFGSGTKLEIKR | 0.05 | 0.1 | 0.49 | 1.76 | 2.3 | 2.54 | 2.23 | 0.31 | 3530 | 7.77 | 0.000443 | 57000 | 5.24 | 0.000434 | 82800
F1.118.4 (antibody, human IgG1, kappa, V domains shown, Human-murine chimeric antibody) VH: QVQLQQSGAELAKPGASVKLSCKASGYSFTSYWIHWVKQRPGQGLEWIGYINPSSGYTKYNQKFKDKATLTADKSSSTAYMQLSSLTYEDSAVYYCARFGSSSFYFDYWGQGTTLTVSS VL: DIVLTQSPASLAVSLGQRATISCRASQSVSSSSYSYMHWYQQKPGQPPKLLIKYASNLDSGVPARFSGSGSGTDFTLNIHPVEEEDTATYYCQHSWEIPAFGGGTKLEIKR | 0.05 | 0.08 | 0.28 | 1.43 | 2.21 | 2.32 | 2.14 | 0.32 | 6220 | 0.472 | 0.000118 | 251000 | 0.226 | 0.000102 | 453000
